Test results: PMC4103757
Numbered stars: 1 amine (or outer) side, 2 acyl side, 3 side chain; on linkers, the order of the positions; unused ones are H or OH. Suc = O=C(CCC(=O)[*:2])[*:1]

Molecular target: scFv-L-Aff, heterobivalent fusion protein of anti-hapten scFv (clone J42) and anti-HER2 affibody (Z_(HER2:477))
Assay: SPR

{histamine-Suc}-GSYK-NH2 [hapten peptide, histamine-succinyl-GSYK]
percent inhibition of the binding of scFv-L-Aff to immobilised hapten: 84%
